These results are taken from patent US20200140562A1 (Innovent, published 2020).

In assay [1] the target is T1, human OX40 on cells (CHO-hOX40, 293HEK-hOX40, Jurkat-hOX40, activated primary CD4+ T cells) (human, UniProt P43489 29-277).
T1 construct: whole, on cells; The cell type is told in each assay; also called CHO-OX40
T1 sequence (looked up): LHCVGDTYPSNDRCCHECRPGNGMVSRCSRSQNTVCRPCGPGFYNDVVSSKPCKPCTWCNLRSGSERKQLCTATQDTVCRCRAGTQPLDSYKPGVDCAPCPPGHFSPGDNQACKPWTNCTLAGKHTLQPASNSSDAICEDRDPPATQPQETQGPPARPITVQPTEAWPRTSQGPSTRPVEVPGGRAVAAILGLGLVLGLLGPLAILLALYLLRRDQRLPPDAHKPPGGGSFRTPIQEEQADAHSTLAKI
The assay can be described thus: flow cytometry, CHO-hOX40, 0.024414063 nM. For orientation: Flow cytometry measures light scatter and fluorescence of single cells or particles in a stream.

The target of assay [2] is T1, human OX40 on cells (CHO-hOX40, …). The assay can be described thus: flow cytometry, CHO-hOX40, 200 nM.
Assay [3] shares this target. Put plainly: flow cytometry, 293HEK-hOX40, 40 nM.
The target is the same in assay [4]. The assay can be described thus: flow cytometry, CHO-hOX40, 100 nM.
For assay [5] the target is unchanged. The assay can be described thus: flow cytometry, CHO-hOX40, 3.125 nM.
Assay [6] shares this target. The assay can be described thus: flow cytometry, 293HEK-hOX40, 8 nM.
Assay [7] shares this target. The assay can be described thus: flow cytometry, CHO-hOX40, 0.78125 nM.
Assay [8] has the same target. Put plainly: flow cytometry, activated CD4+ T cells, donor 1, 100 nM.
Assay [9] has the same target. The assay can be described thus: flow cytometry, CHO-hOX40, 6.25 nM.
Assay [10] has the same target. The assay can be described thus: flow cytometry, CHO-hOX40, 0.1953125 nM.
Assay [11] shares this target. The assay can be described thus: flow cytometry, CHO-hOX40, 1.5625 nM.
Assay [12] shares this target. Put plainly: flow cytometry, CHO-hOX40, 25 nM.
The target is the same in assay [13]. The assay can be described thus: flow cytometry, CHO-hOX40, 0.09765625 nM.
Assay [14] has the same target. Put plainly: flow cytometry, CHO-hOX40, 12.5 nM.
Assay [15] shares this target. The assay can be described thus: flow cytometry, CHO-hOX40, 50 nM.
The target is the same in assay [16]. Put plainly: flow cytometry, CHO-hOX40, 0.390625 nM.
For assay [17] the target is unchanged. The assay can be described thus: flow cytometry, 293HEK-hOX40, 200 nM.
For assay [18] the target is unchanged. Put plainly: flow cytometry, CHO-hOX40, 100 nM blocker, competitor OX40L-hFc-fluorescein.
Assay [19] shares this target. Put plainly: flow cytometry, activated CD4+ T cells, donor 2, 100 nM.
Assay [20] shares this target. Put plainly: flow cytometry, 293HEK-hOX40, 1.6 nM.
Assay [21] shares this target. The assay can be described thus: flow cytometry, 293HEK-hOX40 cells.
The target is the same in assay [22]. Put plainly: flow cytometry, CHO-hOX40, 0.048828125 nM.

B1: IgG1 control (antibody, V domains shown)
VH: EVRLLESGGGLVQPGGSLRLSCAASGFTFSNYAMGWVRQAPGKGLEWVSAISGSGGSTYYADSVKGRFTTSRDDSKNALYLQMNSLRAEDTAVYYCARGGPGWYAADVWGQGTTVTVSS
VL: DIQMTQSPSSLSASVGDRVTITCRASQSISSYLNWYQQKPGKAPKLLIYAASSLQSGVPSRFSGSGSGTDFTLTISSLQPEDFATYYCQQADLPAFAFGGGTKVEIKR
notes: Negative control; The printed entries seem to begin with a leader peptide
Consider B1, for which the MFI in assay [1] came to 2070 MFI; in assay [2] it was 2820 MFI; in [3], 25200 MFI; in [4] it was 1720 MFI; in assay [5], 1750 MFI; in assay [6], 5310 MFI. In addition, the MFI is 1680 MFI in assay [7]; 6310 MFI in [8]; 1600 MFI in [9]; 1510 MFI in assay [10]; 1930 MFI in [11]; 1560 MFI in [12]. For the same molecule, the MFI in [13] worked out at 2380 MFI; in assay [14] it was 1630 MFI; in [15] it was 1700 MFI; in assay [16], 1710 MFI; in [17], 11100 MFI; in [19] it was 1710 MFI. Further, the MFI in assay [20] is 5630 MFI; in assay [22], 2020 MFI. For the same molecule, the “MFI of OX40L signal on CHO-OX40 cells” value in [18] was 35100 MFI. For the same molecule, the binding result in [21] is recorded as “no binding (tested: 200 nM)”.
